Measurements from paper PMC11087256.
pEC50: −log10 of the molar value. Like-named read-outs stand apart in the source and are kept apart here.

What was measured:
GST-EphA2 [1] = molecular target: GST-EphA2 (UniProt P29317); test: ELISA; 200 ng GST-EphA2 coated on 96-well plates overnight at 4 °C, blocked with 5% BSA in PBS; gradient concentrations of 6×His proteins, 2 h at room temperature; anti-His or anti-GST antibody, HRP secondary, absorbance at 450 nm
GST-EphA2 [2] = molecular target: GST-EphA2 (UniProt P29317); test: ELISA; as the ELISA on GST-EphA2-coated plates, gH/gL or gB incubated in the presence of IFITM1 (concentration of IFITM1 not stated)
GST-EphA2 [3] = molecular target: GST-EphA2 (UniProt P29317); test: ELISA; 200 ng GST-EphA2 coated on 96-well plates overnight at 4 °C, blocked with 5% BSA in PBS; gradient concentrations of 6×His proteins, 2 h at room temperature; anti-His or anti-GST antibody, HRP secondary, absorbance at 450 nm; remark: listed apart in the source

| Substance | pEC50 (GST-EphA2 [1]) | EC50 with IFITM1 (GST-EphA2 [2]) | pEC50 (GST-EphA2 [3]) |
| --- | --- | --- | --- |
| soluble 6×His-IFITM1 fusion protein (sIFITM1) (from UniProt P13164 1-125) (natural protein) | 7.81 |  |  |
| 6×His-gH/gL (from UniProt P03231 19-706; P03212 23-137) (complex) | 7.47 | 75.7 nM | 7.49 |
